Measured values: patent publication US10227388B2, “Peptides and combination of peptides for use in immunotherapy against non-small cell lung cancer and other cancers” (immatics biotechnologies GmbH, priority 2015, dated 2019)

Target: HLA-A*02:01 (Homo sapiens, UniProt P04439, D140Y/D185E/D98H/E176V/E277Q/G131W/G231S/I119V/I121R/I166T/I218V/L300P/L318F/N151K/N90K/P208A/P217A/Q86G/Q94H/R138H/R169H/T345S)
Assay: MHC binding assay (UV-ligand exchange, ELISA, peptide exchange yield)
Details: binding of HLA-class I restricted peptides to HLA-A*02:01
Outline: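 Exchange yield was quantified as stabilized β2m-containing complex: monomers diluted 100-fold bound to streptavidin-coated wells, probed with HRP-conjugated anti-β2m, read at 450 nm after TMB. Complexes had been generated by UV cleavage of a photolabile ligand and replacement with the candidate peptide.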

Substance | Peptide exchange (MHC class I binding score, peptide exchange yield)
553 (SLLNQDLHWSL; listed as Homo sapiens) [compound 553] | ″++++″ (≥75% = ++++)
554 (LLMPSSEDLLL; listed as Homo sapiens) [compound 554] | ″+++″ (≥50% = +++)
555 (YVLEGLKSV; listed as Homo sapiens) [compound 555] | ″+++″ (≥50% = +++)
556 (FLTDLEDLTL; listed as Homo sapiens) [compound 556] | ″+++″ (≥50% = +++)
557 (KLYDDMIRL; listed as Homo sapiens) [compound 557] | ″+++″ (≥50% = +++)
558 (GLLENIPRV; listed as Homo sapiens) [compound 558] | ″+++″ (≥50% = +++)
559 (VTVPPGPSL; listed as Homo sapiens) [compound 559] | ″++″ (≥20% = ++)
560 (ALWDIETGQQTTT; listed as Homo sapiens) [compound 560] | ″+++″ (≥50% = +++)
561 (YLQLTQSEL; listed as Homo sapiens) [compound 561] | ″+++″ (≥50% = +++)
562 (YLEELPEKLKL; listed as Homo sapiens) [compound 562] | ″+++″ (≥50% = +++)
563 (WLLPYNGVTV; listed as Homo sapiens) [compound 563] | ″+++″ (≥50% = +++)
564 (TVTNAVVTV; listed as Homo sapiens) [compound 564] | ″+++″ (≥50% = +++)
565 (ALQETPTSV; listed as Homo sapiens) [compound 565] | ″++″ (≥20% = ++)
566 (VIADGGIQNV; listed as Homo sapiens) [compound 566] | ″++″ (≥20% = ++)
567 (SLLPLDDIVRV; listed as Homo sapiens) [compound 567] | ″+++″ (≥50% = +++)
568 (TLYDIAHTPGV; listed as Homo sapiens) [compound 568] | ″++++″ (≥75% = ++++)
569 (KLVDRTWTL; listed as Homo sapiens) [compound 569] | ″+++″ (≥50% = +++)
570 (ALANQIPTV; listed as Homo sapiens) [compound 570] | ″++″ (≥20% = ++)
571 (LLLTTIPQI; listed as Homo sapiens) [compound 571] | ″+++″ (≥50% = +++)
572 (ALADLIEKELSV; listed as Homo sapiens) [compound 572] | ″+++″ (≥50% = +++)
573 (ILVANAIVGV; listed as Homo sapiens) [compound 573] | ″+++″ (≥50% = +++)
574 (YLLQEPPRTV; listed as Homo sapiens) [compound 574] | ″++″ (≥20% = ++)
575 (YLISQVEGHQV; listed as Homo sapiens) [compound 575] | ″+++″ (≥50% = +++)
576 (ILLNNSGQIKL; listed as Homo sapiens) [compound 576] | ″++++″ (≥75% = ++++)
577 (VMFEDGVLMRL; listed as Homo sapiens) [compound 577] | ″+++″ (≥50% = +++)

Substance | Peptide exchange (MHC class I binding score, peptide exchange yield)
578 (FLDPGGPMMKL; listed as Homo sapiens) [compound 578] | ″+++″ (≥50% = +++)
579 (NLMEMVAQL; listed as Homo sapiens) [compound 579] | ″++″ (≥20% = ++)
580 (LLMENAERV; listed as Homo sapiens) [compound 580] | ″++″ (≥20% = ++)
582 (TLCDVILMV; listed as Homo sapiens) [compound 582] | ″+++″ (≥50% = +++)
583 (ILANDGVLLAA; listed as Homo sapiens) [compound 583] | ″+++″ (≥50% = +++)
584 (ALAEVAAMENV; listed as Homo sapiens) [compound 584] | ″+++″ (≥50% = +++)
585 (ALWDLAADKQTL; listed as Homo sapiens) [compound 585] | ″++++″ (≥75% = ++++)
586 (KLKPGDLVGV; listed as Homo sapiens) [compound 586] | ″+++″ (≥50% = +++)
587 (VMNDRLYAI; listed as Homo sapiens) [compound 587] | ″+++″ (≥50% = +++)
588 (SLLPLSHLV; listed as Homo sapiens) [compound 588] | ″+++″ (≥50% = +++)
589 (KLYPQLPAEI; listed as Homo sapiens) [compound 589] | ″+++″ (≥50% = +++)
590 (SLIEKLWQT; listed as Homo sapiens) [compound 590] | ″++″ (≥20% = ++)
591 (SMAELDIKL; listed as Homo sapiens) [compound 591] | ″+++″ (≥50% = +++)
592 (RLLSAAENFL; listed as Homo sapiens) [compound 592] | ″+++″ (≥50% = +++)
593 (GLPRFGIEMV; listed as Homo sapiens) [compound 593] | ″+++″ (≥50% = +++)
594 (IMLKGDNITL; listed as Homo sapiens) [compound 594] | ″+++″ (≥50% = +++)
595 (VLLSIYPRV; listed as Homo sapiens) [compound 595] | ″+++″ (≥50% = +++)
596 (ALLDQTKTLAESAL; listed as Homo sapiens) [compound 596] | ″+++″ (≥50% = +++)
597 (KLLEGQVIQL; listed as Homo sapiens) [compound 597] | ″+++″ (≥50% = +++)
598 (FLFPHSVLV; listed as Homo sapiens) [compound 598] | ″+++″ (≥50% = +++)
599 (YLLNDASLISV; listed as Homo sapiens) [compound 599] | ″+++″ (≥50% = +++)
600 (ALAAPDIVPAL; listed as Homo sapiens) [compound 600] | ″+++″ (≥50% = +++)
601 (SAFPFPVTV; listed as Homo sapiens) [compound 601] | ″+++″ (≥50% = +++)
602 (YLLEQIKLIEV; listed as Homo sapiens) [compound 602] | ″++++″ (≥75% = ++++)
